Data reported in patent US8026218 (UNIVERSITY OF ARIZONA, dated 2011).
Like-named read-outs stand apart in the source and are kept apart here. Bridge positions count the residues as written; N and C are the ends. Square brackets hold non-standard residues; d marks the D form. Ends that are not written are not given here. * marks the point of attachment. Glc = O-glucosyl on Ser side chain (Ser(OGlu)/Ser(OGlc)); NH(3,5-(CF3)2-benzyl) = FC(F)(F)c1cc(CN*)cc(C(F)(F)F)c1; OBzl(3,5-(CF3)2) = FC(F)(F)c1cc(CO*)cc(C(F)(F)F)c1; NH‑Bn(CF3)2 = C-terminal Bn(CF3)2 amide; Dmt = Cc1cc(O)cc(C)c1C[C@H](N)C(=O)O; Nle = CCCC[C@H](N)C(=O)O; NHBn = c1ccc(CN*)cc1

Assays:
guinea pig NK1 receptor [1] = target: guinea pig NK1 receptor (guinea pig, UniProt P30547 1-407); assay: cell-based or functional assay
Target sequence in this assay (P30547 whole entry): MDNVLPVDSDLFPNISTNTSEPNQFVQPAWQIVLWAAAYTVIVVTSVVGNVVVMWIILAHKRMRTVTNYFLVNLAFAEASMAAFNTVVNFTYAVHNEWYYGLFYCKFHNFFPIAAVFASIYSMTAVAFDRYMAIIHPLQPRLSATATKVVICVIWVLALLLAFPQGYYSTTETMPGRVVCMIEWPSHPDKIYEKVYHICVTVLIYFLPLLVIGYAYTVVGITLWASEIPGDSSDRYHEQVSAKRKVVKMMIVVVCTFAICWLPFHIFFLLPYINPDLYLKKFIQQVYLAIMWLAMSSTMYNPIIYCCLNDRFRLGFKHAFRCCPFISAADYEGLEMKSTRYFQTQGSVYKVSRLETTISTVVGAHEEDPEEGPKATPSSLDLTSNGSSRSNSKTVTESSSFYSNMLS

[2] = target: µ opioid receptor of the guinea pig isolated ileum (guinea pig, UniProt P97266 1-98); assay: cell-based or functional assay
Target sequence in this assay (P97266 whole entry): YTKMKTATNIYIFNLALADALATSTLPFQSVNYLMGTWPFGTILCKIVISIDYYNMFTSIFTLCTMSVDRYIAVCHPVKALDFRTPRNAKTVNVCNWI

human NK1 receptor [3] = target: T1, human NK1 receptor (human, UniProt P25103 1-407); assay: radioligand competition vs [3H]substance P, membranes of hNK1 CHO cells
T1 construct: whole, on cells; Used as membrane preparations of transfected CHO cells; also called hNK1; human neurokinin-1 receptor
T1 sequence (P25103 whole entry): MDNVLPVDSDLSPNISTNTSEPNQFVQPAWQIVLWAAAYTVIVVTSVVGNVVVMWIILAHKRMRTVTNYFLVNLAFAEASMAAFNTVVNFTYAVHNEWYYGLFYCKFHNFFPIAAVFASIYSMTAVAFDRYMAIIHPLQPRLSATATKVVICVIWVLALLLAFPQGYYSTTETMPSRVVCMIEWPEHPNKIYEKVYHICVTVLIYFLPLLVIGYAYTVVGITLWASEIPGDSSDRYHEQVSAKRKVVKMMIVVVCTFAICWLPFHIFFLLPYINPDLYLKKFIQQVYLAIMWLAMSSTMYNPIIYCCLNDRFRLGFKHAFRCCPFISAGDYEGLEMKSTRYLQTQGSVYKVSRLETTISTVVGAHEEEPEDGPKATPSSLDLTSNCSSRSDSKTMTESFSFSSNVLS

rat NK1 receptor [4] = target: T2, rat NK1 receptor (rat, UniProt P14600 1-407); assay: radioligand competition vs [3H]substance P, membranes of rNK1 CHO cells
T2 construct: whole, on cells; Used as membrane preparations of transfected CHO cells; also called rNK1; rat neurokinin-1 receptor
T2 sequence (P14600 whole entry): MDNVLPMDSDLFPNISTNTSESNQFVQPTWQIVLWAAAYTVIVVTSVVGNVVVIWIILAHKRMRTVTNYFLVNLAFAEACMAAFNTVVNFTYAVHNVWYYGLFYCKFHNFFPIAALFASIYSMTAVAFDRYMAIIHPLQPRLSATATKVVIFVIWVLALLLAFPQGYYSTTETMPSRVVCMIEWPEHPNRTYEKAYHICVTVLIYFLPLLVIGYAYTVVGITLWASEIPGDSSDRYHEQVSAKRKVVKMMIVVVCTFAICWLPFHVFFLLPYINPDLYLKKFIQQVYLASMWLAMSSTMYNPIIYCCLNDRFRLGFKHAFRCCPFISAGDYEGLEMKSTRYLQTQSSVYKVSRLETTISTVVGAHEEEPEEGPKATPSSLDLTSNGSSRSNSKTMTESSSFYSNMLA

guinea pig NK1 receptor [5] = target: T3, guinea pig NK1 receptor (guinea pig, UniProt P30547 1-407); assay: cell-based or functional assay; remark: listed apart in the source
T3 sequence (P30547 whole entry): as the sequence (P30547 whole entry) above

human δ opioid receptor [6] = target: T4, human δ opioid receptor (human, UniProt P41143 1-372); assay: cell-based or functional assay
T4 sequence (P41143 whole entry, stated change not applied): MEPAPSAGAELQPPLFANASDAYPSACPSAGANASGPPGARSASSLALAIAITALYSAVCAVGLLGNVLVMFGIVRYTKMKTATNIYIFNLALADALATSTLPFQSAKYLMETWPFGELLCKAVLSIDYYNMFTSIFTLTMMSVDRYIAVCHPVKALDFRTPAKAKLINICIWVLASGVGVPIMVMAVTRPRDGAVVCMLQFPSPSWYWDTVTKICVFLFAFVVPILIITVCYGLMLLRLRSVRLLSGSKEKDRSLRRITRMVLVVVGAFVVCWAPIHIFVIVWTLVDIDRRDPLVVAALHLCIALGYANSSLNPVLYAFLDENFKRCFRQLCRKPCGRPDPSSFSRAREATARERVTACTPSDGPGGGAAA

rat µ opioid receptor [7] = target: T5, rat µ opioid receptor (rat, UniProt P33535 1-398); assay: cell-based or functional assay
T5 sequence (P33535 whole entry): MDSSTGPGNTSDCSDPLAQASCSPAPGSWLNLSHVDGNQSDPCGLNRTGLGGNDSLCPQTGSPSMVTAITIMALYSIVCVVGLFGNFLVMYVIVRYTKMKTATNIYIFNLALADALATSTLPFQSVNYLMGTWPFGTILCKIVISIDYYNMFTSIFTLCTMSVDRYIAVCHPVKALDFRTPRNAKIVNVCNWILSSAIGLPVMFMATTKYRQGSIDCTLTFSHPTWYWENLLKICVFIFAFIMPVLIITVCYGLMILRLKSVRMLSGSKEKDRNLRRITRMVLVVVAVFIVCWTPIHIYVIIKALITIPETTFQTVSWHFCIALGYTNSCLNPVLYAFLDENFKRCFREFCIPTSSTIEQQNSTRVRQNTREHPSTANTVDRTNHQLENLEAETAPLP

[8] = target: µ opioid receptor of the guinea pig isolated ileum (guinea pig); assay: cell-based or functional assay
guinea pig NK1 receptor [9] = target: T3, guinea pig NK1 receptor; assay: cell-based or functional assay; remark: listed apart in the source
human δ opioid receptor [10] = target: T4, human δ opioid receptor; assay: ratio of Ki at rMOR to Ki at hDOR
rat µ opioid receptor [11] = target: T5, rat µ opioid receptor; assay: competition vs [3H]DAMGO, membranes of rMOR-transfected HN9.10 cells
human δ opioid receptor [12] = target: T4, human δ opioid receptor; assay: competition vs [3H]DPDPE, membranes of hDOR-transfected HN9.10 cells
rat NK1 receptor [13] = target: T6, rat NK1 receptor (rat, UniProt P14600 1-407); assay: competition vs [3H]substance P, membranes of rNK1-transfected CHO cells
T6 construct: whole, on cells; Assayed as membrane preparations of transfected CHO cells; also called rNK1; rNK-1
T6 sequence (P14600 whole entry): as the sequence (P14600 whole entry) above

rat NK1 receptor [14] = target: T6, rat NK1 receptor; assay: radioligand competition vs [3H]substance P; reference value of L-732,138 (around 460 nM) is a reported one
human δ opioid receptor [15] = target: T7, human δ opioid receptor (human, UniProt P41143 1-372); assay: cell-based or functional assay; remark: listed apart in the source
T7 sequence (P41143 whole entry, stated change not applied): as the sequence (P41143 whole entry, stated change not applied) above

rat µ opioid receptor [16] = target: T8, rat µ opioid receptor (rat, UniProt P33535 1-398); assay: cell-based or functional assay; remark: listed apart in the source
T8 sequence (P33535 whole entry): as the sequence (P33535 whole entry) above

[17] = target: T9, µ opioid receptor of the guinea pig isolated ileum (guinea pig, UniProt P97266 1-98); assay: cell-based or functional assay; remark: listed apart in the source
T9 sequence (P97266 whole entry): as the sequence (P97266 whole entry) above

guinea pig NK1 receptor [18] = target: T10, guinea pig NK1 receptor (guinea pig, UniProt P30547 1-407); assay: cell-based or functional assay; remark: listed apart in the source
T10 sequence (P30547 whole entry): as the sequence (P30547 whole entry) above

rat µ opioid receptor [19] = target: T8, rat µ opioid receptor; assay: competition vs [3H]DAMGO, rMOR cell membranes
human δ opioid receptor [20] = target: T7, human δ opioid receptor; assay: competition vs [3H]DPDPE, hDOR cell membranes
human NK1 receptor [21] = target: T11, human NK1 receptor (human, UniProt P25103 1-407); assay: competition vs [3H]Substance P, hNK1 CHO cell membranes
T11 construct: whole, on cells; membrane preparations of the transfected cells were used; also called hNK1; human neurokinin-1 receptor
T11 sequence (P25103 whole entry): as the sequence (P25103 whole entry) above

rat NK1 receptor [22] = target: T12, rat NK1 receptor (rat, UniProt P14600 1-407); assay: competition vs [3H]Substance P, rNK1 CHO cell membranes
T12 construct: whole, on cells; membrane preparations of the transfected cells were used; also called rNK1; rNK-1
T12 sequence (P14600 whole entry): as the sequence (P14600 whole entry) above

[23] = target: T9, µ opioid receptor of the guinea pig …; assay: cell-based or functional assay; remark: listed apart in the source
guinea pig NK1 receptor [24] = target: T10, guinea pig NK1 receptor; assay: cell-based or functional assay; remark: listed apart in the source
rat µ opioid receptor [25] = target: T8, rat µ opioid receptor; assay: competition vs [3H]DAMGO, rMOR cell membranes; remark: listed apart in the source
human δ opioid receptor [26] = target: T7, human δ opioid receptor; assay: competition vs [3H]DPDPE, hDOR cell membranes; remark: listed apart in the source
human NK1 receptor [27] = target: T11, human NK1 receptor; assay: competition vs [3H]Substance P, hNK1 CHO cell membranes; remark: listed apart in the source
rat NK1 receptor [28] = target: T12, rat NK1 receptor; assay: competition vs [3H]Substance P, rNK1 CHO cell membranes; remark: listed apart in the source
human NK1 receptor [29] = target: T11, human NK1 receptor; assay: competition vs [3H]Substance P, hNK1 CHO cell membranes; remark: listed apart in the source
rat NK1 receptor [30] = target: T12, rat NK1 receptor; assay: competition vs [3H]Substance P, rNK1 CHO cell membranes; remark: listed apart in the source
human δ opioid receptor [31] = target: T7, human δ opioid receptor; assay: cell-based or functional assay; remark: listed apart in the source
rat µ opioid receptor [32] = target: T8, rat µ opioid receptor; assay: cell-based or functional assay; remark: listed apart in the source
guinea pig NK1 receptor [33] = target: T10, guinea pig NK1 receptor; assay: cell-based or functional assay; remark: listed apart in the source
rat µ opioid receptor [34] = target: T8, rat µ opioid receptor; assay: ratio of the Ki at rMOR to the Ki at hDOR
rat µ opioid receptor [35] = target: T8, rat µ opioid receptor; assay: competition vs [3H]DAMGO, rMOR cell membranes; remark: listed apart in the source
human δ opioid receptor [36] = target: T7, human δ opioid receptor; assay: competition vs [3H]DPDPE, hDOR cell membranes; remark: listed apart in the source
human NK1 receptor [37] = target: T11, human NK1 receptor; assay: competition vs [3H]Substance P, hNK1 CHO cell membranes; remark: listed apart in the source
rat NK1 receptor [38] = target: T12, rat NK1 receptor; assay: competition vs [3H]Substance P, rNK1 CHO cell membranes; remark: listed apart in the source
human NK1 receptor [39] = target: T11, human NK1 receptor; assay: competition vs [3H]Substance P, hNK1 CHO cell membranes; remark: listed apart in the source
rat NK1 receptor [40] = target: T12, rat NK1 receptor; assay: competition vs [3H]Substance P, rNK1 CHO cell membranes; remark: listed apart in the source

Y[dA]GF[Nle]PLS(Glc)W-{NH‑Bn(CF3)2} [TyrDAlaGlyPheNleProLeuSer(OGlu)TrpNHBn(CF3)2 (TY055)]
GPI/LMMP SP antagonist Ke (guinea pig NK1 receptor [1]): 8.4 nM
GPI/LMMP opioid(mu) agonist IC50 [2]: 670 nM
Ki (human NK1 receptor [3]): 0.052 nM
Ki (rat NK1 receptor [4]): 33.9 nM

H-Y[dA]GFFPLW-{OBzl(3,5-(CF3)2)} (also: TFA salt, TFA salt; also called TY003) [H-Tyr-D-Ala-Gly-Phe-Phe-Pro-Leu-Trp-O-3,5-Bzl(CF3)2]
fold improvement of Ke in GPI tissue over L-732,138 (guinea pig NK1 receptor [5]): 12 fold
[35S]GTP-γ-S binding EC50 (human δ opioid receptor [6]): 20.8 nM
[35S]GTP-γ-S binding Emax (human δ opioid receptor [6]): 39%
[35S]GTP-γ-S binding LogEC50 (human δ opioid receptor [6]): -7.68
[35S]GTP-γ-S binding EC50 (rat µ opioid receptor [7]): 58.7 nM
[35S]GTP-γ-S binding Emax (rat µ opioid receptor [7]): 41%
[35S]GTP-γ-S binding LogEC50 (rat µ opioid receptor [7]): -7.23
GPI (µ) opioid agonist, % at 1 µM [8]: 7 % at 1 µM
Substance P GPI agonist (A50), contraction relative to KCl (guinea pig NK1 receptor [9]): 0 % at 1 µM
Substance P GPI antagonist Ke (guinea pig NK1 receptor [9]): 14.4 nM
Ki(µ)/Ki(δ) (human δ opioid receptor [10]): 1.9
Ki (rat µ opioid receptor [11]): 28.3 nM
LogIC50 (rat µ opioid receptor [11]): -7.22
Ki (human δ opioid receptor [12]): 14.6 nM
LogIC50 (human δ opioid receptor [12]): -7.5
IC50 (rat NK1 receptor [13]): 19.3 nM
LogIC50 (rat NK1 receptor [13]): -7.72
fold improvement of rNK1 affinity over L-732,138 (rat NK1 receptor [14]): 25 fold

Y[dA]GFS(Glc)PLW-{NH(3,5-(CF3)2-benzyl)} (also called TY042) [TyrDAlaGlyPheSer(OGlu)ProLeuTrpNHBn(CF3)2]
GTP binding EC50 (human δ opioid receptor [15]): 51.9 nM
GTP binding Emax (human δ opioid receptor [15]): 47%
GTP binding EC50 (rat µ opioid receptor [16]): 176 nM
GTP binding Emax (rat µ opioid receptor [16]): 28%
GPI/LMMP IC50 [17]: 1890 nM
GPI/LMMP SP antagonist Ke (guinea pig NK1 receptor [18]): 2.83 nM
Ki (rat µ opioid receptor [19]): 256 nM
Ki (human δ opioid receptor [20]): 58.5 nM
Ki (human NK1 receptor [21]): 0.00027 nM
Ki (rat NK1 receptor [22]): 1.5 nM

[Dmt][dA]GFMPLW-NHBn (also called TY034) [DmtDAlaGlyPheMetProLeuTrpNHBn]
GPI/LMMP IC50 [23]: 11.4 nM
GPI/LMMP Substance P antagonist Ke (guinea pig NK1 receptor [24]): 36.9 nM
Ki (rat µ opioid receptor [25]): 0.14 nM
Ki (human δ opioid receptor [26]): 0.1 nM
Ki (human NK1 receptor [27]): 2.4 nM
Ki (rat NK1 receptor [28]): 317 nM

YXGFXPLW (D-Pen at 2 and 5 (written X); disulfide 2-5; C-terminal NH-3,5-Bzl(CF3)2 amide, cyclic; also called TY049) [Tyr[DPenGlyPheDPen]ProLeuTrpNHBn(CF3)2]
Ki (human NK1 receptor [29]): 0.18 nM
Ki (rat NK1 receptor [30]): 4.54 nM

B1: Tyr[DCysGlyPheNleProDCys]TrpNHBn(CF3)2 (peptide)
peptide: Y[dC]GF[Nle]P[dC]W-{NH(3,5-(CF3)2-benzyl)}
modifications: disulfide 2-7
notes: cyclic; also called TY038; [D-Cys2, D-Cys7]TY027
[35S]GTPγS binding EC50 (human δ opioid receptor [31]): 51 nM
[35S]GTPγS binding Emax (human δ opioid receptor [31]): 87%
[35S]GTPγS binding LogEC50 (human δ opioid receptor [31]): -7.3
[35S]GTPγS binding EC50 (rat µ opioid receptor [32]): 22 nM
[35S]GTPγS binding Emax (rat µ opioid receptor [32]): 12%
[35S]GTPγS binding LogEC50 (rat µ opioid receptor [32]): -7.7
GPI Substance P antagonist Ke (guinea pig NK1 receptor [33]): 12 nM
Ki(µ)/Ki(δ) (rat µ opioid receptor [34]): 2.9
Ki (rat µ opioid receptor [35]): 160 nM
LogIC50 (rat µ opioid receptor [35]): -8.8
Ki (human δ opioid receptor [36]): 56 nM
LogIC50 (human δ opioid receptor [36]): -6.9
Ki (human NK1 receptor [37]): 0.25 nM
LogIC50 (human NK1 receptor [37]): -9.3
Ki (rat NK1 receptor [38]): 7.1 nM
LogIC50 (rat NK1 receptor [38]): -7.7

Y[dA]GF[Nle]PLS(Glc)W-{NH(3,5-(CF3)2-benzyl)} (also called TY055) [TyrDAlaGlyPheNleProLeuSer(OGlu)TrpNHBn(CF3)2]
Ki (human NK1 receptor [39]): 0.052 nM
Ki (rat NK1 receptor [40]): 34 nM
